Drawing on publication PMC6555819, “Comprehensive study of nuclear receptor DNA binding provides a revised framework for understanding receptor specificity”, this text covers binding signal for 31 molecules.

B1: NRC3_random_hg19_245_o1 (dsDNA)
DNA 1: GCATGTTCCTTTACCCTAGCTGCAGTGGGTATCCACGCGATTGACAGCGTAGAATGAAGG
DNA 2: CCTTCATTCTACGCTGTCAATCGCGTGGATACCCACTGCAGCTAGGGTAAAGGAACATGC
B2: NRC3_random_hg19_488_o1 (dsDNA)
DNA 1: GCGGTTGCAGTGAGCTGAGATCACACCACTGCACTCGCGATTGACAGCGTAGAATGAAGG
DNA 2: CCTTCATTCTACGCTGTCAATCGCGAGTGCAGTGGTGTGATCTCAGCTCACTGCAACCGC
B3: NRC3_wobSeed59_DR2_o1 (dsDNA)
DNA 1: GCTCTATTAGTTGATTAGGGCAACCGAAACAGCGGAGCGATTGACAGCGTAGAATGAAGG
DNA 2: CCTTCATTCTACGCTGTCAATCGCTCCGCTGTTTCGGTTGCCCTAATCAACTAATAGAGC
B4: NRC3_wobSeed67_DR2_o1 (dsDNA)
DNA 1: GCCCAGACAGGTGAGAAGGTAACTCAGCCTCGATTAGCGATTGACAGCGTAGAATGAAGG
DNA 2: CCTTCATTCTACGCTGTCAATCGCTAATCGAGGCTGAGTTACCTTCTCACCTGTCTGGGC
B5: NRC3_wobSeed66_DR2_C13A_o1 (dsDNA)
DNA 1: GCAATACAGGGTAACTAGGCCAGAGTAGGTACGAATGCGATTGACAGCGTAGAATGAAGG
DNA 2: CCTTCATTCTACGCTGTCAATCGCATTCGTACCTACTCTGGCCTAGTTACCCTGTATTGC
B6: NRC3_random_hg19_137_o1 (dsDNA)
DNA 1: GCCTCACGTGTTTCCTGGTAGAAATGCAGAGTACAAGCGATTGACAGCGTAGAATGAAGG
DNA 2: CCTTCATTCTACGCTGTCAATCGCTTGTACTCTGCATTTCTACCAGGAAACACGTGAGGC
B7: NRC3_random_hg19_36_o1 (dsDNA)
DNA 1: GCCAGGCAGTTTGCTTGAGCTCAGGAGTTCAAGACTGCGATTGACAGCGTAGAATGAAGG
DNA 2: CCTTCATTCTACGCTGTCAATCGCAGTCTTGAACTCCTGAGCTCAAGCAAACTGCCTGGC
B8: NRC3_random_hg19_87_o1 (dsDNA)
DNA 1: GCGACTGCTTGCATCAGTCAAGGTTTGGGCAGTGAGGCGATTGACAGCGTAGAATGAAGG
DNA 2: CCTTCATTCTACGCTGTCAATCGCCTCACTGCCCAAACCTTGACTGATGCAAGCAGTCGC
B9: NRC3_random_hg19_210_o1 (dsDNA)
DNA 1: GCATCATTTGCTCTGGGTGAAGCCAGCTACCATGTTGCGATTGACAGCGTAGAATGAAGG
DNA 2: CCTTCATTCTACGCTGTCAATCGCAACATGGTAGCTGGCTTCACCCAGAGCAAATGATGC
B10: NRC3_random_hg19_144_o1 (dsDNA)
DNA 1: GCCAGTGCTGGCGTCGTAGTGCTTGCCATAACAGAGGCGATTGACAGCGTAGAATGAAGG
DNA 2: CCTTCATTCTACGCTGTCAATCGCCTCTGTTATGGCAAGCACTACGACGCCAGCACTGGC
B11: NRC3_wobSeed93_DR3_T12G_o1 (dsDNA)
DNA 1: GCAGTCAAAGTGCATCTAGGTAACGTAAGATATGCTGCGATTGACAGCGTAGAATGAAGG
DNA 2: CCTTCATTCTACGCTGTCAATCGCAGCATATCTTACGTTACCTAGATGCACTTTGACTGC
B12: NRC3_random_hg19_15_o1 (dsDNA)
DNA 1: GCGTTGGTCAGCTGGTCTCGAACTCCTGACCTCAAGGCGATTGACAGCGTAGAATGAAGG
DNA 2: CCTTCATTCTACGCTGTCAATCGCCTTGAGGTCAGGAGTTCGAGACCAGCTGACCAACGC
B13: NRC3_random_hg19_296_o1 (dsDNA)
DNA 1: GCGGCCTATGGCTCCAGAATGCTAATGCTACTCTGCGCGATTGACAGCGTAGAATGAAGG
DNA 2: CCTTCATTCTACGCTGTCAATCGCGCAGAGTAGCATTAGCATTCTGGAGCCATAGGCCGC
B14: NRC3_random_hg19_395_o1 (dsDNA)
DNA 1: GCGTACAATTGCCCTCTTAGCAGAGTTCTGGTGCATGCGATTGACAGCGTAGAATGAAGG
DNA 2: CCTTCATTCTACGCTGTCAATCGCATGCACCAGAACTCTGCTAAGAGGGCAATTGTACGC
B15: NRC3_random_hg19_316_o1 (dsDNA)
DNA 1: GCCAAAGACAGCTTTGCAAGGCCACTTCTGTTTGCTGCGATTGACAGCGTAGAATGAAGG
DNA 2: CCTTCATTCTACGCTGTCAATCGCAGCAAACAGAAGTGGCCTTGCAAAGCTGTCTTTGGC
B16: NRC3_wobSeed21_DR0_T11A_o1 (dsDNA)
DNA 1: GCCGTCAAAGATCAAGGTAACGTAACAGAAAGCAGCGCGATTGACAGCGTAGAATGAAGG
DNA 2: CCTTCATTCTACGCTGTCAATCGCGCTGCTTTCTGTTACGTTACCTTGATCTTTGACGGC
B17: NRC3_random_hg19_232_o1 (dsDNA)
DNA 1: GCTTAGCAGGAACTGAGAAGTCACACTCAAGAGTTAGCGATTGACAGCGTAGAATGAAGG
DNA 2: CCTTCATTCTACGCTGTCAATCGCTAACTCTTGAGTGTGACTTCTCAGTTCCTGCTAAGC
B18: NRC3_random_hg19_148_o1 (dsDNA)
DNA 1: GCTGTGTCACCATGAGCAATCCAACCAGGCATCCCAGCGATTGACAGCGTAGAATGAAGG
DNA 2: CCTTCATTCTACGCTGTCAATCGCTGGGATGCCTGGTTGGATTGCTCATGGTGACACAGC
B19: NRC3_wobSeed63_DR2_A14G_o1 (dsDNA)
DNA 1: GCCGAACTAGGTCGCCAGGACAGTGAAGAGGTTGGAGCGATTGACAGCGTAGAATGAAGG
DNA 2: CCTTCATTCTACGCTGTCAATCGCTCCAACCTCTTCACTGTCCTGGCGACCTAGTTCGGC
B20: NRC3_random_hg19_475_o1 (dsDNA)
DNA 1: GCATGAAAGTTTAGTATGTGTAGGGTAGTGCTTCATGCGATTGACAGCGTAGAATGAAGG
DNA 2: CCTTCATTCTACGCTGTCAATCGCATGAAGCACTACCCTACACATACTAAACTTTCATGC
B21: NRC3_wobSeed39_DR1_A14T_o1 (dsDNA)
DNA 1: GCCGAACTAGGTCTAAGGACAGTGAAAGGCGACGTAGCGATTGACAGCGTAGAATGAAGG
DNA 2: CCTTCATTCTACGCTGTCAATCGCTACGTCGCCTTTCACTGTCCTTAGACCTAGTTCGGC
B22: NRC3_wobSeed122_DR5_G21T_o1 (dsDNA)
DNA 1: GCGCTAGTTGGTCAGTAAAATGTCACACACCGGTCGGCGATTGACAGCGTAGAATGAAGG
DNA 2: CCTTCATTCTACGCTGTCAATCGCCGACCGGTGTGTGACATTTTACTGACCAACTAGCGC
B23: NRC3_wobSeed136_DR5_T12G_o1 (dsDNA)
DNA 1: GCTAGCCTAGGGCATTCAGGGGCCAGTATAGAAAGCGCGATTGACAGCGTAGAATGAAGG
DNA 2: CCTTCATTCTACGCTGTCAATCGCGCTTTCTATACTGGCCCCTGAATGCCCTAGGCTAGC
B24: NRC3_random_hg19_467_o1 (dsDNA)
DNA 1: GCGAAACTGCTGCAAAGGCCTACTGAAGCCTGACTGGCGATTGACAGCGTAGAATGAAGG
DNA 2: CCTTCATTCTACGCTGTCAATCGCCAGTCAGGCTTCAGTAGGCCTTTGCAGCAGTTTCGC
B25: NRC3_wobSeed109_DR4_A8G_o1 (dsDNA)
DNA 1: GCCGTCCGAGGTCATAGGAGGTCAGTGAAGACAGATGCGATTGACAGCGTAGAATGAAGG
DNA 2: CCTTCATTCTACGCTGTCAATCGCATCTGTCTTCACTGACCTCCTATGACCTCGGACGGC
B26: NRC3_wobSeed90_DR3_A14G_o1 (dsDNA)
DNA 1: GCCATACAGGGTCGGCTAGGCCAGAGTAGGGACGGCGCGATTGACAGCGTAGAATGAAGG
DNA 2: CCTTCATTCTACGCTGTCAATCGCGCCGTCCCTACTCTGGCCTAGCCGACCCTGTATGGC
B27: NRC3_wobSeed88_DR3_G10A_o1 (dsDNA)
DNA 1: GCTAGCCTAAGTCATGCGGGCCAGTATAGTGTCGGCGCGATTGACAGCGTAGAATGAAGG
DNA 2: CCTTCATTCTACGCTGTCAATCGCGCCGACACTATACTGGCCCGCATGACTTAGGCTAGC
B28: NRC3_random_hg19_295_o1 (dsDNA)
DNA 1: GCGAGGTTGCAGAGATGTTCTCACTAAACATTCGTTGCGATTGACAGCGTAGAATGAAGG
DNA 2: CCTTCATTCTACGCTGTCAATCGCAACGAATGTTTAGTGAGAACATCTCTGCAACCTCGC
B29: NRC3_random_hg19_361_o1 (dsDNA)
DNA 1: GCAAACTGGGAGGTGGAGGTTGTAGTAAGCCAAGATGCGATTGACAGCGTAGAATGAAGG
DNA 2: CCTTCATTCTACGCTGTCAATCGCATCTTGGCTTACTACAACCTCCACCTCCCAGTTTGC
B30: NRC3_random_hg19_345_o1 (dsDNA)
DNA 1: GCGCAGTGGGTGATGATGTCACTGGTTAACGTGGCTGCGATTGACAGCGTAGAATGAAGG
DNA 2: CCTTCATTCTACGCTGTCAATCGCAGCCACGTTAACCAGTGACATCATCACCCACTGCGC
B31: NRC3_random_hg19_377_o1 (dsDNA)
DNA 1: GCTTTAGAAGAAAGGTTTCATTACTGAGAGCAGCCAGCGATTGACAGCGTAGAATGAAGG
DNA 2: CCTTCATTCTACGCTGTCAATCGCTGGCTGCTCTCAGTAATGAAACCTTTCTTCTAAAGC

Chain of FXR:RXRa (Q96RI1 whole entry, chain 1 of 2): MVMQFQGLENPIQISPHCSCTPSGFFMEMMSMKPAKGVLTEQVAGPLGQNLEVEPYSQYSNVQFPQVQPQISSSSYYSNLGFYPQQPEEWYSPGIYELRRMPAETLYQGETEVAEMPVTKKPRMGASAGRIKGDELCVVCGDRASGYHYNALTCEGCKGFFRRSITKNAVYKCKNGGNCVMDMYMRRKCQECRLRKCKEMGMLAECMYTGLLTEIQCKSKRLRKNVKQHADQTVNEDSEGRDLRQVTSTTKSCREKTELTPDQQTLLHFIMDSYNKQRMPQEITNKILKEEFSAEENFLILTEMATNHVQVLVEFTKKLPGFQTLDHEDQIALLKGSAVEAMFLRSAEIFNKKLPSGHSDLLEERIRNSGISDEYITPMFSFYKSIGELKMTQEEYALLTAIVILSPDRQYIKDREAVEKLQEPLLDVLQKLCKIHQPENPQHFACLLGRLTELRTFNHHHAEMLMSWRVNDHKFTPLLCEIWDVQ
Chain of FXR:RXRa (P19793 whole entry, chain 2 of 2): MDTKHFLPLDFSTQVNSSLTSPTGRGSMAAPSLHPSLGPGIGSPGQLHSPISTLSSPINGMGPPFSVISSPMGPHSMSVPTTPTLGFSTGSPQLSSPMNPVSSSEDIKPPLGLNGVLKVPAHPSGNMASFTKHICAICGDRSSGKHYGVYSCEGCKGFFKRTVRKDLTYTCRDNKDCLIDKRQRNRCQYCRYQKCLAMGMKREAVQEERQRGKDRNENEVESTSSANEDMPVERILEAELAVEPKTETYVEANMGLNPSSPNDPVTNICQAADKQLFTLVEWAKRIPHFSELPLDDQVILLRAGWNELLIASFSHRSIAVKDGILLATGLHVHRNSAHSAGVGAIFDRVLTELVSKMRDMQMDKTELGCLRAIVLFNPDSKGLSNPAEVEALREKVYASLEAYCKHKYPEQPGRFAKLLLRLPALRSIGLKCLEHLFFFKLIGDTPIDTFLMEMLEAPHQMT

The target of this series is FXR:RXRa (Homo sapiens, UniProt Q96RI1;P19793 full;full). Description: no ligand; PBM; 270 nM : 90 nM RXRa; PBS pH 7.4, 2% milk, 0.02% Triton X-100, 1 mM DTT, BSA, 0.4 mg/ml salmon testes DNA. The conditions noted are these: tags: His kept;His cleaved; copies: 1;1; label: surface-attached array probe. The procedure, abridged:
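On custom Agilent 4×180K arrays, double-stranded probes with 34-nt variable regions carried direct-repeat seeds, single-nucleotide variants, half-site ablations or random human genomic background. Ligand-free nuclear receptor dimers were applied for 1 h, and binding was read with antibodies against each partner (one per run). Binding z-scores come from regression-normalized fluorescence, with the random background probes as reference.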
For the molecule B1, the binding signal is 0.41 PBM z-score against 500 random probes. For the molecule B2, the binding signal is -0.28 PBM z-score against 500 random probes. On to B3, for which the binding signal was 0.48 PBM z-score against 500 random probes. For B4, the binding signal was 0.47 PBM z-score against 500 random probes. For the molecule B5, the binding signal was -0.01 PBM z-score against 500 random probes.

Turning to B6, the binding signal was 0.08 PBM z-score against 500 random probes.

Take B7: the binding signal was -0.62 PBM z-score against 500 random probes. Consider B8, for which the binding signal is -0.74 PBM z-score against 500 random probes. With B9, the binding signal was -0.02 PBM z-score against 500 random probes. The value for B10 was -0.87 PBM z-score against 500 random probes; that for B11 was 0.12 PBM z-score against 500 random probes; that for B12 was 0.16 PBM z-score against 500 random probes. Regarding B13, the binding signal is -0.48 PBM z-score against 500 random probes.

On to B14, for which the binding signal was 0.09 PBM z-score against 500 random probes.

On to B15, for which the binding signal was -0.15 PBM z-score against 500 random probes. For the molecule B16, the binding signal was 0.1 PBM z-score against 500 random probes. B17: the binding signal is -0.34 PBM z-score against 500 random probes.

As for B18, the binding signal was -0.04 PBM z-score against 500 random probes.

Turning to B19, the binding signal is 0.16 PBM z-score against 500 random probes. Consider B20, for which the binding signal is 0.26 PBM z-score against 500 random probes. Consider B21, for which the binding signal is 0.18 PBM z-score against 500 random probes. For B22, the binding signal was 0.1 PBM z-score against 500 random probes.

Regarding B23, the binding signal was -0.08 PBM z-score against 500 random probes. On to B24, for which the binding signal was -0.59 PBM z-score against 500 random probes. In the case of B25, the binding signal is 8.19 PBM z-score against 500 random probes. In the case of B26, the binding signal was 0.13 PBM z-score against 500 random probes. Take B27: the binding signal was -0.37 PBM z-score against 500 random probes.

On to B28, for which the binding signal was 0.03 PBM z-score against 500 random probes. Turning to B29, the binding signal is 0.3 PBM z-score against 500 random probes. Turning to B30, the binding signal was -0.31 PBM z-score against 500 random probes. Regarding B31, the binding signal was -0.61 PBM z-score against 500 random probes.
